Experimental findings from PMC6780499, “Characterization, Recombinant Production and Structure-Function Analysis of NvCI, A Picomolar Metallocarboxypeptidase Inhibitor from the Marine Snail Nerita versicolor” (Marine Drugs, 2019) are described below.

By Kd is commonly meant the free concentration of one partner at which half of the binding sites on the other are occupied at equilibrium, for simple one-to-one binding.

Test in all cases: Ki, residual activity
In assay [1] the target is T1, hCPB (Homo sapiens (Human), UniProt P15086).
T1 chain: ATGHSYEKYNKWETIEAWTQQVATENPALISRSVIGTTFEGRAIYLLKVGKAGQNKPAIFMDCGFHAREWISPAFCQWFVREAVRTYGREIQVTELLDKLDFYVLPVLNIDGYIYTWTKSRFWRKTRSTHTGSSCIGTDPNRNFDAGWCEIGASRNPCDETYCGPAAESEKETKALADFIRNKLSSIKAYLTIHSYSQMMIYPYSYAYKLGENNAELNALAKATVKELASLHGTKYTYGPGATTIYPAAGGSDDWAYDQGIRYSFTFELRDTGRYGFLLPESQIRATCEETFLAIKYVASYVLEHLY

Assay [2] deals with T2, hTAFI (Homo sapiens (Human), UniProt Q96IY4).
T2 chain: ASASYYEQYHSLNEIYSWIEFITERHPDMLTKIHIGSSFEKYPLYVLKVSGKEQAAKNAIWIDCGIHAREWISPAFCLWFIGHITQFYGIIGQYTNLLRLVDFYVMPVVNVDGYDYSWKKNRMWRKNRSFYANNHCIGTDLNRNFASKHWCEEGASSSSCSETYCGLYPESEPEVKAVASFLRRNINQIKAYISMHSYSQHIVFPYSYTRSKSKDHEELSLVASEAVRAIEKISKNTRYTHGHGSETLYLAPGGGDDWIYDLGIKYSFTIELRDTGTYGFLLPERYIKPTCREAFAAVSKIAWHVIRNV

The target of assay [3] is T3, bTAFI (Bos taurus (Bovine), UniProt Q2KIG3).
T3 chain: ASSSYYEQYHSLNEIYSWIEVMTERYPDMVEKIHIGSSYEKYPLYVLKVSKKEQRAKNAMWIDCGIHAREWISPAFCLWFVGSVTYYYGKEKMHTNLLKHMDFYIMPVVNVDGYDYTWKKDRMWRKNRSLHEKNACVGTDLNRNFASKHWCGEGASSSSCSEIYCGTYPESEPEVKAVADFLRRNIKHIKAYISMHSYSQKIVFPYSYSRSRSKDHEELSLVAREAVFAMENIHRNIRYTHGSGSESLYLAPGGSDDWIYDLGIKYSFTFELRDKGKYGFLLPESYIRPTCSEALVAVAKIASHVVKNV

Assay [4] deals with T4, hCPA1 (Homo sapiens (Human), UniProt P15085).
T4 chain: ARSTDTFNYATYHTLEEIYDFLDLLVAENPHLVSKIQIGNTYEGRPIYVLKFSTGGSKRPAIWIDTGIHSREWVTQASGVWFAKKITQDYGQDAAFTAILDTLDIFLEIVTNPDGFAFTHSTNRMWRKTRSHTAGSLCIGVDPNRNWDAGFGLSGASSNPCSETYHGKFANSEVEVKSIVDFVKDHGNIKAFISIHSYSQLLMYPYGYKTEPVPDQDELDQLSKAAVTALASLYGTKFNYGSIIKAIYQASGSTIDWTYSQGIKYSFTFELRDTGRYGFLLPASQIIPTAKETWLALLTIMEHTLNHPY

Assay [5] concerns the target T5, hCPD (Homo sapiens (Human), UniProt O75976).
T5 chain: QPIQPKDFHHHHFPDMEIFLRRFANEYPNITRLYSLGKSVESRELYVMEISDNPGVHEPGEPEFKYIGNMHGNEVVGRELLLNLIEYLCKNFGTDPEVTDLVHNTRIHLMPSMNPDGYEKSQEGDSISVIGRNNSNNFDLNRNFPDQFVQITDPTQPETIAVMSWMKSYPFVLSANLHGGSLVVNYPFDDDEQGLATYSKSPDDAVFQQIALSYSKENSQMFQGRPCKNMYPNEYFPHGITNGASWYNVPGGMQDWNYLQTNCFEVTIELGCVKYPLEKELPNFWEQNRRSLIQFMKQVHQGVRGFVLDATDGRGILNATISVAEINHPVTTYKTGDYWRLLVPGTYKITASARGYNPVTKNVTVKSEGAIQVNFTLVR

For assay [6], the target named is T6, hCPA2 (Homo sapiens (Human), UniProt P48052).
T6 chain: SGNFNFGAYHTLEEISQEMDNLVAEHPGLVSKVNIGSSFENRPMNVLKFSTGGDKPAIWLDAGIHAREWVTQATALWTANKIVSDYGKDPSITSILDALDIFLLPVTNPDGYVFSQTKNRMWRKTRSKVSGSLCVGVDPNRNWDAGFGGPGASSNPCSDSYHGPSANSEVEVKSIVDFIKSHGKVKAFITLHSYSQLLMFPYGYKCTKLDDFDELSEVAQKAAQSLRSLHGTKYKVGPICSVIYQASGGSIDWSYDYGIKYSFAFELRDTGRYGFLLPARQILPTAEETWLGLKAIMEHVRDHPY

In assay [7] the target is T7, bCPA1 (Bos taurus (Bovine), UniProt P00730).
T7 chain: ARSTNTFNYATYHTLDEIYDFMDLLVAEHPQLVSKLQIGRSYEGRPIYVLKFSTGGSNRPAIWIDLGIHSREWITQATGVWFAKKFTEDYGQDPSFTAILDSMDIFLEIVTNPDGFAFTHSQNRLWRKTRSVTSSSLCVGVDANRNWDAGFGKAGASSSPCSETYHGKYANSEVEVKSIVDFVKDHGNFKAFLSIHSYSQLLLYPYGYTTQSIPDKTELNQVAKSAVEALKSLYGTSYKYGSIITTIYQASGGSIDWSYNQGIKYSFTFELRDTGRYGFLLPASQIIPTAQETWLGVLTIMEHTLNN

Assay [8] concerns the target T8, hCPZ (Homo sapiens (Human), UniProt Q66K79).
T8 chain: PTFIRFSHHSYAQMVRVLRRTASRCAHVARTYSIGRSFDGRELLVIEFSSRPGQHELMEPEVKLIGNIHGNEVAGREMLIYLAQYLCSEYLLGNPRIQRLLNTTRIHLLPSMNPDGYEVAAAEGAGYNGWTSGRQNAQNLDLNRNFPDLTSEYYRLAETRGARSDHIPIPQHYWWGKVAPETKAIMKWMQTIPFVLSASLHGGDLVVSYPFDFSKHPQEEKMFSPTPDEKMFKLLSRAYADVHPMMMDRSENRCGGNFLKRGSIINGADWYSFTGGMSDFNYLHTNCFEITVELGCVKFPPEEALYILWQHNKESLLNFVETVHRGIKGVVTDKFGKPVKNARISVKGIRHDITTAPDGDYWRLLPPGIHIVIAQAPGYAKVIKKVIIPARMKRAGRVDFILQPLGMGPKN

No end group written: not given here.

B1: NvCI (protein)
chain: FHVPDDRPCINPGRCPLVPDATCTFVCKAADNDFGYECQHVWTFEGQRVGCYA
modifications: disulfide (positions not given here); not fully specified (bridges); ends not checked
With B1, the Kd is 0.549 nM in assay [1]; 0.951 nM in assay [2]; 0.0841 nM in assay [3]; 0.0012 nM in assay [4]; above 1000 nM in assay [5]; 2.94 nM in assay [6]. Besides, the results for the dissociation constant Kd in assay [7] and in assay [8] were 0.0058 nM and above 1000 nM, respectively.
